Two proteins from PMC11539162, “Distinct roles for the domains of the mitochondrial aspartate/glutamate carrier citrin in organellar localization and substrate transport” (Molecular Metabolism, 2024) can be followed below.

This data set deals with the molecule itself. Briefly: SEC; size exclusion chromatography of purified full-length citrin and of the calcium-binding site mutant; column and buffer not told.

B1: human citrin (mitochondrial aspartate/glutamate carrier isoform 2), full-length wild type (natural protein, UniProt Q9UJS0-1 1-675, looked up)
chain: MAAAKVALTKRADPAELRTIFLKYASIEKNGEFFMSPNDFVTRYLNIFGESQPNPKTVELLSGVVDQTKDGLISFQEFVAFESVLCAPDALFMVAFQLFDKAGKGEVTFEDVKQVFGQTTIHQHIPFNWDSEFVQLHFGKERKRHLTYAEFTQFLLEIQLEHAKQAFVQRDNARTGRVTAIDFRDIMVTIRPHVLTPFVEECLVAAAGGTTSHQVSFSYFNGFNSLLNNMELIRKIYSTLAGTRKDVEVTKEEFVLAAQKFGQVTPMEVDILFQLADLYEPRGRMTLADIERIAPLEEGTLPFNLAEAQRQKASGDSARPVLLQVAESAYRFGLGSVAGAVGATAVYPIDLVKTRMQNQRSTGSFVGELMYKNSFDCFKKVLRYEGFFGLYRGLLPQLLGVAPEKAIKLTVNDFVRDKFMHKDGSVPLAAEILAGGCAGGSQVIFTNPLEIVKIRLQVAGEITTGPRVSALSVVRDLGFFGIYKGAKACFLRDIPFSAIYFPCYAHVKASFANEDGQVSPGSLLLAGAIAGMPAASLVTPADVIKTRLQVAARAGQTTYSGVIDCFRKILREEGPKALWKGAGARVFRSSPQFGVTLLTYELLQRWFYIDFGGVKPMGSEPVPKSRINLPAPNPDHVGGYKLAVATFAGIENKFGLYLPLFKPSVSTSKAIGGGP
notes: human citrin (AGC2), full length, codon-optimised cDNA; UniProt Q9UJS0, isoform NP_055066.1; The tag is followed by a TEV site (ENLYFQG); the protein was released from the resin by TEV digestion; NP_055066.1 is printed for the mammalian construct; the yeast construct is called a codon-optimised cDNA of human citrin; also called AGC2; wild-type citrin; source: S. cerevisiae W303-1B, mitochondria …
On to B1, for which the “stoichiometry N” value worked out at 2.

B2: human citrin D66A/T68A/D70A/E77A, full-length calcium-binding site mutant (natural protein, UniProt Q9UJS0-1 1-675, looked up)
chain: MAAAKVALTKRADPAELRTIFLKYASIEKNGEFFMSPNDFVTRYLNIFGESQPNPKTVELLSGVVAQAKAGLISFQAFVAFESVLCAPDALFMVAFQLFDKAGKGEVTFEDVKQVFGQTTIHQHIPFNWDSEFVQLHFGKERKRHLTYAEFTQFLLEIQLEHAKQAFVQRDNARTGRVTAIDFRDIMVTIRPHVLTPFVEECLVAAAGGTTSHQVSFSYFNGFNSLLNNMELIRKIYSTLAGTRKDVEVTKEEFVLAAQKFGQVTPMEVDILFQLADLYEPRGRMTLADIERIAPLEEGTLPFNLAEAQRQKASGDSARPVLLQVAESAYRFGLGSVAGAVGATAVYPIDLVKTRMQNQRSTGSFVGELMYKNSFDCFKKVLRYEGFFGLYRGLLPQLLGVAPEKAIKLTVNDFVRDKFMHKDGSVPLAAEILAGGCAGGSQVIFTNPLEIVKIRLQVAGEITTGPRVSALSVVRDLGFFGIYKGAKACFLRDIPFSAIYFPCYAHVKASFANEDGQVSPGSLLLAGAIAGMPAASLVTPADVIKTRLQVAARAGQTTYSGVIDCFRKILREEGPKALWKGAGARVFRSSPQFGVTLLTYELLQRWFYIDFGGVKPMGSEPVPKSRINLPAPNPDHVGGYKLAVATFAGIENKFGLYLPLFKPSVSTSKAIGGGP
notes: Same construct as m1 apart from the four substitutions; also called quadruple alanine mutant; quadruple mutant; source: S. cerevisiae W303-1B, mitochondria solubilised in LMNG, purified (nickel Sepharose, on-column TEV digestion); not shown: His8, N-terminal, cleaved
For B2, the “stoichiometry N” value came out at 2.

A word on the stoichiometry N: it is the number of molecules, sites or subunits per partner or assembly.
